Patent US20250195607A1 (BIOLINERX, published 2025)
Bridges are numbered along the chain shown (N, C = ends). [ ]: non-standard residue; d: D form. The star is where a group is joined. 2Nal = N[C@@H](Cc1ccc2ccccc2c1)C(=O)O; Benzoyl(4-F) = O=C(c1ccc(F)cc1)*; Cit = NC(=O)NCCC[C@H](N)C(=O)O

Biological target: CXCR4 chemokine receptor (mouse, UniProt P70658 1-359)
Assay: cell-based or functional assay

CXCR4 chemokine receptor, sequence (P70658 whole entry): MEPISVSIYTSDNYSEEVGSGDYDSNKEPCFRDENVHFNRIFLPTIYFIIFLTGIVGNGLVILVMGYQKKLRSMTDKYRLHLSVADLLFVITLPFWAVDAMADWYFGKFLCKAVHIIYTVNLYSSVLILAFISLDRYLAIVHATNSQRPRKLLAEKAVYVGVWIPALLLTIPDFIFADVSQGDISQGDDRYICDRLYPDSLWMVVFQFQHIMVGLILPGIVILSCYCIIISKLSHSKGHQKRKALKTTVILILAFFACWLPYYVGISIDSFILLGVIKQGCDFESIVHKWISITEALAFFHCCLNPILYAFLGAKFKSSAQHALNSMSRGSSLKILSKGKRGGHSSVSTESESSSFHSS

With {Benzoyl(4-F)}-RR[2Nal]CY[Cit]K[dK]PYR[Cit]CR-NH2 (disulfide 4-13 (inferred)) the “Fold increase in neutrophil number in peripheral blood (mice, 5 mg/kg s.c., 2 hours after injection, flow cytometry); BL-8040 composition of Example 1” value was 9.9 fold and the “Fold increase in neutrophil number in peripheral blood (mice, 5 mg/kg s.c., 2 hours after injection, flow cytometry); BL-8040 composition of Reference Example 1” value was 5.6 fold.
